Data reported in patent US9725708B2, “Methods of modulating ubiquitin ligase activity” (Board of Supervisors of Louisiana State University and …, priority 2012, dated 2017).

Molecular target: T1, E6APD543A (Homo sapiens, UniProt Q05086, D566A)
T1 construct: made in house; host or cells: E. coli
T1 sequence (Q05086 1-872 isoform Q05086-3 D563A): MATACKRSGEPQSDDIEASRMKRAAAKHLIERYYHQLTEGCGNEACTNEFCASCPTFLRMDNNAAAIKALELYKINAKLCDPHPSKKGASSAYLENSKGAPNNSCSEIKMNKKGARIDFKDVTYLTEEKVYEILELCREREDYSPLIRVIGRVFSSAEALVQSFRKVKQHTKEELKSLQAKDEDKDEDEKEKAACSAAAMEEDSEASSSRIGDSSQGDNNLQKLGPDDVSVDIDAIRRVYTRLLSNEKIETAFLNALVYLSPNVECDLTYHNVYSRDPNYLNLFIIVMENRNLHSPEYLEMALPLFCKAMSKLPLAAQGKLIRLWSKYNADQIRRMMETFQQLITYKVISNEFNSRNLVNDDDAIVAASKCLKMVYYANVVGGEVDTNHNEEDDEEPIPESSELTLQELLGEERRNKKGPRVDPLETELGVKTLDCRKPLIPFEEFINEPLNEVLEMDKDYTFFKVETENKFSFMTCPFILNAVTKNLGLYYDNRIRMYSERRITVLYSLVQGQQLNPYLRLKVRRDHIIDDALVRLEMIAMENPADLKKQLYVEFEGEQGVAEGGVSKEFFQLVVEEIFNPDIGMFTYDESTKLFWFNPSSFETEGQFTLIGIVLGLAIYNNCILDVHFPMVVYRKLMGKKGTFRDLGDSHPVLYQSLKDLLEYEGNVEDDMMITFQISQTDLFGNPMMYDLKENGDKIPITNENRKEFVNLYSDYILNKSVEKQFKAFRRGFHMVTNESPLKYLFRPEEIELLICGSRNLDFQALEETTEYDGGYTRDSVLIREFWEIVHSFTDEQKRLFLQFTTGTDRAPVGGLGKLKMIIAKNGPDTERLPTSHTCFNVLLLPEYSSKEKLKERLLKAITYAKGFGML
Assay: E6 rescue of 125I-polyubiquitin chain formation by E6APD543A
Assay type: biochemical
Conditions: 20 nM E6 protein
Description: E6AP-catalyzed ^125I-Ubiquitin Conjugation Assay: The E3 ligase activity of recombinant E6AP ligase was quantitated in kinetic assays under initial velocity conditions (Ronchi et al., (2013) J. Biol. Chem. 288, 10349-10360, Ronchi & Haas (2012) Methods Mol. Biol. 832: 197-218). Rates of E6AP-catalyzed ^125I-polyubiquitin chain formation were measured at 37° C. in incubations of 25-μl final volume containing 50 mM Tris-HCl (pH 7.5), 1 mM ATP, 10 mM MgCl2, 1 mM DTT, 10 mM creatine phosphate, 1 IU of creatine phosphokinase, 5 μM ^125I-ubiquitin (approximately 1.5×10^4 cpm/pmol), 50 nM human Uba1, and the indicated concentrations of UbcH7 and E6AP ligase (Siepmann et al., (2003) J. Biol. Chem. 278: 9448-9457; Baboshina et al., (2001) J. Biol. Chem. 276: 39428-39437). […]
Polyubiquitin chain formation was measured by excising lanes between the top of the resolving gel and the top of the stacker gel, representing anchored and free ^125I-polyubiquitin chains, respectively, and quantitating associated ^125I-ubiquitin by γ-counting. Absolute rates of ^125I-polyubiquitin chain formation were calculated from the associated radioactivity and the corrected specific radioactivity for ^125I-ubiquitin. Datum points represent single assay determinations, and complete data sets were evaluated by non-linear regression analysis using GraFit version 5.0 (Erithicus). […]

B1: E6 protein: recombinant human papilloma virus 16 E6 protein, 158 amino acids (protein)
chain: MHQKRTAMFQDPQERPRKLPQLCTELQTTIHDIILECVYCKQQLLRREVYDFAFRDLCIVYRDGNPYAVCDKCLKFYSKISEYRHYCYSLYGTTLEQQYNKPLCDLLIRCINCQKPLCPEEKQRHLDKKQRFHNIRGRWTGRCMSCCRSSRTRRETQL
  effect on rate: no enhancement in rate
